How the values were obtained:
[1] = target: T1, CD73 on cynomolgus macaques CD3+CD8+ T cells (cynomolgus macaques, UniProt A0A2K5V5U7 27-549); assay: flow cytometry on cynomolgus macaque PBMC, CD3+CD8+ T cells, donor 1132F
T1 construct: whole, on cells; also called cynomolgus macaques T cells; cynomolgus macaques PBMC
T1 sequence: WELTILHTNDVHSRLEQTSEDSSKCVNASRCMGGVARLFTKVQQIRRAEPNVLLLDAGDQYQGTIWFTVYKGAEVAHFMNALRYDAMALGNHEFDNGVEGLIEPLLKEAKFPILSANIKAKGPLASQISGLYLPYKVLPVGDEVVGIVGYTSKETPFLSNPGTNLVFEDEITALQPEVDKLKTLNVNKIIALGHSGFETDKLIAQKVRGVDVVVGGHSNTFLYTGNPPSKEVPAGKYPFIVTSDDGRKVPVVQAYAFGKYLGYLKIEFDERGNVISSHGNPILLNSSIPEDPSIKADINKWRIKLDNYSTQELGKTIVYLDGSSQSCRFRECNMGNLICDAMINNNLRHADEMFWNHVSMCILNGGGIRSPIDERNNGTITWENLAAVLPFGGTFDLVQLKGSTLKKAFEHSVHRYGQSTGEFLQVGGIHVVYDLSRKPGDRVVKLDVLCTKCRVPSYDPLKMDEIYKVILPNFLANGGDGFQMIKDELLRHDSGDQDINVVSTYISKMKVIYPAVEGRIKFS
Protocol: Monkey blood samples from two donors (1132F and 1300M) were obtained from Medicilon. Peripheral blood mononuclear cells (PBMCs) were isolated using a Ficoll density gradient centrifugation system. The PBMCs were incubated with the antibody to be tested, then the antibodies bound on the cells were stained with fluorochrome-labeled secondary antibodies (DyLight488 goat anti-mouse IgG, Abcam Cat. No. ab97015; DyLight488 goat anti-human IgG, Abcam Cat. No. ab97003), and the fluorochrome-labeled antibodies against CD3+ and CD8+ were used to recognize T cells. Together with the unstained control samples and the fluorescence compensation control samples, all the samples were run on a flow cytometer to detect the binding of the antibodies to cynomolgus macaques T cells.

[2] = target: T2, human CD73 on the cell surface (tumor cells endogenously expressing human CD73; CHOS-human CD73) (human, UniProt P21589 27-549); assay: full-field cell scanning analyzer (Celigo), percent fluorescent cells, H2030 cells endogenously expressing human CD73
T2 construct: The endogenous CD73 of the human tumor lines (MDA-MB-231, Calu6, SK-ME-S, H2030, SKLU1, BT549, A375, HCC44) is treated as the same protein
T2 sequence: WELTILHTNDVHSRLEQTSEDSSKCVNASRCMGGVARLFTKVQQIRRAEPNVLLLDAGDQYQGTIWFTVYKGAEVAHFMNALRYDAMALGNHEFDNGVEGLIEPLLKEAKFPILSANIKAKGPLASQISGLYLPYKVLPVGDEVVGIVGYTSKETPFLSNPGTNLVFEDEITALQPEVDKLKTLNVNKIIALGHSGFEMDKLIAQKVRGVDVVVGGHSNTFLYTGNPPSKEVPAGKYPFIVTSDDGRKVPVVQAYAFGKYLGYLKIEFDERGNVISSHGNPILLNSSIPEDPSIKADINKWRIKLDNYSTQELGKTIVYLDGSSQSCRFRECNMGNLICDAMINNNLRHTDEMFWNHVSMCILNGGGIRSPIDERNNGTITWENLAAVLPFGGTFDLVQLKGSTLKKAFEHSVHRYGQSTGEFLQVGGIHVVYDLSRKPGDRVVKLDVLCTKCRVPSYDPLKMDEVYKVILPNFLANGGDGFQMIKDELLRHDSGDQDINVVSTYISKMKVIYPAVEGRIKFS
Protocol: (§1) Experimental method: 10,000 cells were plated on a flat-bottom 96-well plate with 100 μL DMEM+10% FBS/well, cultured overnight so that the cells adhered to the well, and the supernatant was discarded on the next day. Serial 3-fold dilutions of antibody for 8 points were performed by diluting ⅓ of the total volume (100 μL) in 200 μL DMEM. 100 μL of the diluted antibody was added to each well of the cell plate (the supernatants of fused clones or subclones were used for screening), 100 μL of DMEM was added to the corresponding negative control well, and incubation was performed at room temperature for 1 hour. After the supernatant was discarded, 100 μL of secondary antibody (DyLight488 goat anti-mouse IgG (Abcam, Cat. No. ab97015)) was added to each well at a concentration of 5 μg/mL (diluted in DMEM), and incubation was performed for 0.5 hours at room temperature. After staining, the supernatant was discarded, followed by washing once with PBS+2% FBS, then 100 μL of PBS+2% FBS was added to each well, and then reading was performed on analyzer. A full-field cell scanning analyzer (Nexcelom Company, model Celigo® Image Cytometer) was used to measure the reading of the experimental plate. […] The binding effect of the anti-CD73 antibody to the CD73-expressing cell line was determined according to the percentage. […]

murine CD73 on 4T1 cells = target: T3, murine CD73 on 4T1 cells (murine, UniProt Q61503 29-551); assay: cell binding on adherent 4T1 cells, DyLight488 goat anti-mouse IgG, full-field cell scanning analyzer (Celigo), % fluorescent cells
T3 construct: whole, on cells; also called 4T1 (endogenously expressing murine CD73)
T3 sequence (looked up): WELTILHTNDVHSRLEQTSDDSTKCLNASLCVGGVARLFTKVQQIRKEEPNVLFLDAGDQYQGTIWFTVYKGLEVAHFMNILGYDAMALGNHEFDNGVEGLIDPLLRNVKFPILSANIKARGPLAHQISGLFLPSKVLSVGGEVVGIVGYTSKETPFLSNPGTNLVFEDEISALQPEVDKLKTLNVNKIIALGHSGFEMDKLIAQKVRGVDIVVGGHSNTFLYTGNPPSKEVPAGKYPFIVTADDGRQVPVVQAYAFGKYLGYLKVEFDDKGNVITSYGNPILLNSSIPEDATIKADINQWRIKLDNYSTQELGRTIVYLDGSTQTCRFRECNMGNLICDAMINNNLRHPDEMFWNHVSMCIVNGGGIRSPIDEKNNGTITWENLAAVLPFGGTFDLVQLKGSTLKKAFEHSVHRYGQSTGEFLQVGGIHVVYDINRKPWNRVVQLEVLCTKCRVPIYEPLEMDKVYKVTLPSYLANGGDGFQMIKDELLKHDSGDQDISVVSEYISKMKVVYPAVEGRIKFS
Protocol: as §1

B1: murine antibody 13D12 (antibody, V domains shown)
VH: DVKLQESGPAMVKPSQSLSLTCTVTGYSITSGYDWHWIRLFPGNKLEWMGYISYSGYTDYSPSLKSRISITHDTSKNHFFLKLHSVTTEDTATYYCTRGDHSYAMDYWGQGTSVTVS
VL: DIVMTQSHKFMSTSVGDRVSITCKASQAVGTAVAWYQQKPGQSPKLLIYWASSRHTGVPDRFTGSRSGTDFTLTISSVQSEDLADYFCQQYSSYPLTFGGGTNLEIK
notes: Mouse monoclonal antibody purified from hybridoma supernatant; also called mouse monoclonal antibody 13D12
MFI FC (fold change of mean fluorescence intensity) [1]: 5 fold
EC50 [2]: 0.46 µg/mL
binding result (murine CD73 on 4T1 cells): no binding

— patent publication US20230312739A1 (BIOTHEUS, published 2023)
